# According to paper PMC3637433 (The FEBS journal, 2013):
# Read-outs that look alike come from different tables or passages of the source. Square brackets hold non-standard residues; d marks the D form. Ends that are not written are not given here. sY = N[C@@H](Cc1ccc(OS(=O)(=O)O)cc1)C(=O)O
# How the values were obtained:
# [1] = target: RANTES (E66S mutant of human RANTES) (human); test: 1H-15N-HSQC, intensities of monomer and dimer cross-peaks
# [2] = target: RANTES (E66S mutant of human RANTES) (human); test: as above; remark: listed apart in the source
# [3] = target: RANTES (E66S mutant of human RANTES) (human); test: as above; remark: listed apart in the source
# [4] = target: RANTES (E66S mutant of human RANTES) (human); test: as above; remark: listed apart in the source
# [5] = target: RANTES (E66S mutant of human RANTES) (human); test: as above; remark: listed apart in the source
# [6] = target: CCR5 N-terminal peptide (Nt-CCR5) N-terminus (Homo sapiens) (UniProt P51681); settings: cited from earlier work
# Chain of CCR5 N-terminal peptide (Nt-CCR5) N-terminus (Homo sapiens) (P51681 1-27): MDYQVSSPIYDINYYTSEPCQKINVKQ
# RANTES = target: T1, RANTES (Homo sapiens, UniProt P13501, E89S); test: 1H-15N-HSQC NMR titration of U-15N-RANTES; assay type: binding; settings: 293 K, pH 4.8; peptide up to 2.9 mM, 64 molar excess relative to RANTES; KD could not be extracted
# T1 sequence (P13501 24-91 E89S): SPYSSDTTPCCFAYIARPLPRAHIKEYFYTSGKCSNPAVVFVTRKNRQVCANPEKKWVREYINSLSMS
# [7] = target: RANTES (E66S mutant of human RANTES) (human); test: NMR titration
# [8] = target: RANTES (E66S mutant of human RANTES) (human); test: NMR titration; remark: listed apart in the source
# [9] = target: RANTES (E66S mutant of human RANTES) (human); test: NMR titration; remark: listed apart in the source
molecule,measurement,setting,value
RANTES (E66S mutant of human RANTES) (ligand),"ratio of monomer/dimer peak intensities, IM/ID",[1],< 0.1
same,"ratio of monomer/dimer peak intensities, IM/ID",[2],0.2
same,"ratio of monomer/dimer peak intensities, IM/ID",[3],0.13
same,"ratio of monomer/dimer peak intensities, IM/ID",[4],1.57
same,"ratio of monomer/dimer peak intensities, IM/ID",[5],0.45
same,stoichiometry N,[5],2
RANTES (from UniProt P13501),Kd,[6],1 µM
TRSQKEGLHYTSSSHFPYSQYQ [ECL2],Saturation of RANTES chemical shift changes on titration,RANTES,saturation was not achieved
"MDYQVSSPI[sY]DIN[sY]YTSEPAQKINVKQ [Nt-CCR5 peptide (CCR5 residues 1-27), sulfated at Y10 and Y14]",Kd,[7],84 µM
same,Kd,[8],16 µM
same,Kd,[9],100 µM
